Measurements taken from article PMC7768682 (Proceedings of the National Academy of Sciences of the …, 2020).
Ends that are not written are not given here.

Experiments:
Experiment in all cases: BLI
talin head t1-400 = talin head t1-400 (human, UniProt Q9Y490 1-400)
talin head t1-405 = talin head t1-405 (human, UniProt Q9Y490 1-405)
talin head t1-435 = talin head t1-435 (human, UniProt Q9Y490 1-435)
Chain of talin head t1-435 (Q9Y490 1-435): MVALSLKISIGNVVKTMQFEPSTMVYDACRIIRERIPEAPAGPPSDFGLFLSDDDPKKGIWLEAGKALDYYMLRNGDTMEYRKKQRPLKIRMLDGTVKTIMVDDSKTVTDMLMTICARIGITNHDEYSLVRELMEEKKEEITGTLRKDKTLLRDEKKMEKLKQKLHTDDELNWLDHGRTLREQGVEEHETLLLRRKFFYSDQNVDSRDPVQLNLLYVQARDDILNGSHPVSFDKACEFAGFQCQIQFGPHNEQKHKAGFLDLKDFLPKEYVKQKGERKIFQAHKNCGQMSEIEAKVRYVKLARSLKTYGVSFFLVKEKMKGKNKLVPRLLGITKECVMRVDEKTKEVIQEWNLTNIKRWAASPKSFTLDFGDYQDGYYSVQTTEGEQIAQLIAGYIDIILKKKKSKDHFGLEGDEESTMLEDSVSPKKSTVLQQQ

Chain of talin head t1-400 (Q9Y490 1-400): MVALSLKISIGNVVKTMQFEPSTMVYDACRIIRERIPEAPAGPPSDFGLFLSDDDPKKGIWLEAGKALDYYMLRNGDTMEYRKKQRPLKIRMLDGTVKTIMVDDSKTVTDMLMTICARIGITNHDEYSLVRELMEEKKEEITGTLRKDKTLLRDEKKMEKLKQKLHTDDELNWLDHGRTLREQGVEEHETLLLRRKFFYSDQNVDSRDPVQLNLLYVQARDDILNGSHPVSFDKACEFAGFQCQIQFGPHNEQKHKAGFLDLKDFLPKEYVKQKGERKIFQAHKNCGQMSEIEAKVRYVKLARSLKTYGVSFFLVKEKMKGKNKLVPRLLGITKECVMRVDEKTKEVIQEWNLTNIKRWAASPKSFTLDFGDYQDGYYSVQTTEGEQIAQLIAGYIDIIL
Chain of talin head t1-405 (Q9Y490 1-405): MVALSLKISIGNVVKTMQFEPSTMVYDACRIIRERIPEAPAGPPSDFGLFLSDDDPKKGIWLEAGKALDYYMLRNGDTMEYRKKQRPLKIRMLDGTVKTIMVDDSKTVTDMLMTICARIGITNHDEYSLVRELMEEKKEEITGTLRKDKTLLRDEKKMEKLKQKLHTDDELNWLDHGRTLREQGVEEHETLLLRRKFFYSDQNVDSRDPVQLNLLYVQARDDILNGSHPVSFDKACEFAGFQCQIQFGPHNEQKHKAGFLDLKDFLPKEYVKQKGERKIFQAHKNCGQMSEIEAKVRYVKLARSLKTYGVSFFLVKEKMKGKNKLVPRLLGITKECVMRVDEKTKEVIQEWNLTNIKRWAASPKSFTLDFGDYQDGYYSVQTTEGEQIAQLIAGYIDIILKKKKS

- binding result (talin head t1-400): binds
- binding result (talin head t1-405): binds
- binding result (talin head t1-435): binds
B1: GST-integrin β3 cytoplasmic tail fusion, wild type (WT-β3) (domain or fragment)
chain: {GST}-GSKLLITIHDRKEFAKFEEERARAKWDTANNPLYKEATSTFTNITYRGT
